According to US20240230671A9, “COMPOSITIONS AND METHODS FOR IDENTIFICATION OF CROSS-REACTIVE ALLERGENIC PROTEINS AND TREATMENT OF ALLERGIES” (Alladapt Immunotherapeutics, Inc., priority 2021, published 2024):
Each block holds one molecule with its values, some of them ahead of it.

Columns and labels:
[1] = Single allergen subcutaneous immunotherapy in walnut and hazelnut allergic subjects; assay type: in vivo
dendritic cells = experiment: Mouse study: CD4+ T cells from peptide-dosed mice incubated with antigen-loaded dendritic cells; assay type: cell-based; conditions: 50 ug peptide orally for 4 weeks; tetanus toxoid as control
Description: Mouse Study: A composition comprising 50 ug of the cross-reactive peptide comprising the MHC-II-binding T-cell epitope 5′-[…]-3′ and a pharmaceutical acceptable carrier is administered orally to mice for 4 weeks. Two weeks after the last dose, blood is drawn from a peripheral vein and CD4+ T cells are purified by cell sorting on magnetic beads. CD4+ T-cells are added to culture medium in which histocompatible dendritic cells, used as antigen presenting cells, are incubated with either the peptide sequence or with tetanus toxoid as a control for 2 hr at room temperature. The cells are then washed and purified CD4+ T-cells are added to culture medium. […] Incubation of CD4+ T-cells with dendritic cells loaded with the hazelnut Cor_i_9 antigen results in dendritic cell apoptosis.

IgE = experiment: ALEX2 chip ELISA-based multiplex assay for IgE binding to allergens; set-up: species or system human
Description: In another example, forty-two human serum samples with self-reported clinical allergies were obtained and analyzed in triplicate on an ALEX2 chip (developed by Macro Array Diagnostics), which enables an ELISA-based multiplex assay for the detection of IgE adsorption to allergen components and extracts. […] The assay detects the binding of IgE to these allergens in an ELISA-based multiplex fashion. The dynamic range of the chip spans a little over two orders of magnitude, 0.3-50 kUA/L.

Molecule: HWNLNAHSVVYALRG
allergic reaction after immunotherapy [1]: fail to react to both walnuts and hazelnuts
apoptosis of antigen-presenting dendritic cells by CD4+ T cells (dendritic cells): induce apoptosis of dendritic cells presenting the Cor_i_9 antigen

samples with a positive value for the allergen (IgE; of forty two human serum samples run on the ALEX2 chip): 22 samples
B1: Bet v 1: Silver birch allergen, Bet v 1 family, recombinant allergen on ALEX2 chip (protein)
chain: GVFNYETETTSVIPAARLFKAFILDGDNLFPKVAPQAISSVENIEGNGGPGTIKKISFPEGFPFKYVKDRVDEVDHTNFKYNYSVIEGGPIGDTLEKISNEIKIVATPDGGSILKISNKYHTKGDHEVKAEQVKASKEMGETLLRAVESYLLAHSDAYN

Pearson Correlation coefficient based on ALEX data (IgE; Tropomyosin family, correlation of IgE levels with Penm1): 0.99
B2: Derp: European house dust mite allergen, Tropomyosin family, on ALEX2 chip (protein, UniProt O18416 1-284, looked up)
Tropomyosin: MEAIKNKMQAMKLEKDNAIDRAEIAEQKARDANLRAEKSEEEVRALQKKIQQIENELDQVQEQLSAANTKLEEKEKALQTAEGDVAALNRRIQLIEEDLERSEERLKIATAKLEEASQSADESERMRKMLEHRSITDEERMEGLENQLKEARMMAEDADRKYDEVARKLAMVEADLERAEERAETGESKIVELEEELRVVGNNLKSLEVSEEKAQQREEAHEQQIRIMTTKLKEAEARAEFAERSVQKLQKEVGRLEDELVHEKEKYKSISDELDQTFAELTGY
modifications: tropomyosin
notes: European house dust mite allergen, Tropomyosin family, on ALEX2 chip

Pearson Correlation coefficient based on ALEX data (IgE; Bet v 1 family, correlation of IgE levels with Bet v 1, 22 Bet v 1-positive human serum samples): 0.62
B3: Mal d 1: Apple allergen, Bet v 1 family, on ALEX2 chip (protein, UniProt P43211 2-159, looked up)
Major allergen Mal d 1: GVYTFENEFTSEIPPSRLFKAFVLDADNLIPKIAPQAIKQAEILEGNGGPGTIKKITFGEGSQYGYVKHRIDSIDEASYSYSYTLIEGDALTDTIEKISYETKLVACGSGSTIKSISHYHTKGNIEIKEEHVKVGKEKAHGLFKLIESYLKDHPDAYN
